Reference: IntAct's records for PubMed 31000591

B1: T-lymphocyte activation antigen CD80 (Mus musculus), Q00609 (parent)
chain: MACNCQLMQDTPLLKFPCPRLILLFVLLIRLSQVSSDVDEQLSKSVKDKVLLPCRYNSPHEDESEDRIYWQKHDKVVLSVIAGKLKVWPEYKNRTLYDNTTYSLIILGLVLSDRGTYSCVVQKKERGTYEVKHLALVKLSIKADFSTPNITESGNPSADTKRITCFASGGFPKPRFSWLENGRELPGINTTISQDPESELYTISSQLDFNTTRNHTIKCLIKYGDAHVSEDFTWEKPPEDPPDSKNTLVLFGAGFGAVITVVVIVVIIKCFCKHRSCFRRNEASRETNNSLTFGPEEALAEQTVFL

Variants of: B1
Details: with pd1l1_mouse Cd274, Q9EP73
Chain of pd1l1_mouse Cd274, Q9EP73 (Q9EP73 whole entry): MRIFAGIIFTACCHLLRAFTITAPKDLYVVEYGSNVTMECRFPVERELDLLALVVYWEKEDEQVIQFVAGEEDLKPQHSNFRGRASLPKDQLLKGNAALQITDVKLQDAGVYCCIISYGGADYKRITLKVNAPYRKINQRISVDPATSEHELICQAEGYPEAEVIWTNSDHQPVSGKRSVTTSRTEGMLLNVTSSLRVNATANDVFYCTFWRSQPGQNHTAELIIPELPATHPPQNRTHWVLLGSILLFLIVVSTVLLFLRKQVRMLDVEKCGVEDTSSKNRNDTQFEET

effect of a mutation on the interaction | Variant
disrupting interaction strength | MACNCQLMQDTPLLKFPCPRLILLFVLLIRLSQVSSDVDEQLSKSVKDKVLLPCRYNSPHEDESEDRIYWQKHDKVVLSVIAGKLKVWPEYKNRTLYDNTTYSLIIEGLVLSDRGTYSCVVQKKERGTYEVKHLALVKLSIKADFSTPNITESGNPSADTKRITCFASGGFPKPRFSWLENGRELPGINTTISQDPESELYTISSQLDFNTTRNHTIKCLIKYGDAHVSEDFTWEKPPEDPPDSKNTLVLFGAGFGAVITVVVIVVIIKCFCKHRSCFRRNEASRETNNSLTFGPEEALAEQTVFL [L107E]
